According to article PMC8692609, “Native mass spectrometry identifies the HybG chaperone as carrier of the Fe(CN)2CO group during maturation of E. coli [NiFe]-hydrogenase 2” (Scientific Reports, 2021):

B1: N-terminally His-tagged pre-HybC (natural protein, E. coli, UniProt P0ACE0 1-567, looked up)
chain: MSQRITIDPVTRIEGHLRIDCEIENGVVSKAWASGTMWRGMEEIVKNRDPRDAWMIVQRICGVCTTTHALSSVRAAESALNIDVPVNAQYIRNIILAAHTTHDHIVHFYQLSALDWVDITSALQADPTKASEMLKGVSTWHLNSPEEFTKVQNKIKDLVASGQLGIFANGYWGHPAMKLPPEVNLIAVAHYLQALECQRDANRVVALLGGKTPHIQNLAVGGVANPINLDGLGVLNLERLMYIKSFIDKLSDFVEQVYKVDTAVIAAFYPEWLTRGKGAVNYLSVPEFPTDSKNGSFLFPGGYIENADLSSYRPITSHSDEYLIKGIQESAKHSWYKDEAPQAPWEGTTIPAYDGWSDDGKYSWVKSPTFYGKTVEVGPLANMLVKLAAGRESTQNKLNEIVAIYQKLTGNTLEVAQLHSTLGRIIGRTVHCCELQDILQNQYSALITNIGKGDHTTFVKPNIPATGEFKGVGFLEAPRGMLSHWMVIKDGIISNYQAVVPSTWNSGPRNFNDDVGPYEQSLVGTPVADPNKPLEVVRTIHSFDPCMACAVHVVDADGNEVVSVKVL
notes: HybC, large (catalytic) subunit of hydrogenase 2 of Escherichia coli, as the immature precursor that still has the C-terminal peptide removed on maturation; also called apo-form of the hydrogenase 2 catalytic subunit; hydrogenase 2 large-subunit precursor; source: E. coli (plasmid pCAN-hybC_(stop)), purified on cobalt-charged TALON Superflow agarose; not shown: His tag, N-terminal, kept
B2: StrepII-tagged HybG (natural protein, E. coli, UniProt P0AAM7 1-82, looked up)
chain: MCIGVPGQVLAVGEDIHQLAQVEVCGIKRDVNIALICEGNPADLLGQWVLVHVGFAMSIIDEDEAKATLDALRQMDYDITSA
modifications: populations with a +26 Da modification on the N-terminal cysteinyl residue, a further +44 Da (CO2) modification, or the Fe(CN)2CO group (+136 Da; only on HybG dissociated from the native HybG-HypD complex)
notes: HybG, HypC-family hydrogenase maturation chaperone of Escherichia coli; the N-terminal residue of the protein is the cysteine that is formally amino acid position 2; Deconvoluted mass of the unmodified tagged protein is printed as 9615 Da; also called StrepII-HybG; native HybG; not shown: StrepII, C-terminal, kept
B3: HypD (natural protein, E. coli, UniProt P24192 1-373, looked up)
chain: MRFVDEYRAPEQVMQLIEHLRERASHLSYTAERPLRIMEVCGGHTHAIFKFGLDQLLPENVEFIHGPGCPVCVLPMGRIDTCVEIASHPEVIFCTFGDAMRVPGKQGSLLQAKARGADVRIVYSPMDALKLAQENPTRKVVFFGLGFETTMPTTAITLQQAKARDVQNFYFFCQHITLIPTLRSLLEQPDNGIDAFLAPGHVSMVIGTDAYNFIASDFHRPLVVAGFEPLDLLQGVVMLVQQKIAAHSKVENQYRRVVPDAGNLLAQQAIADVFCVNGDSEWRGLGVIESSGVHLTPDYQRFDAEAHFRPAPQQVCDDPRARCGEVLTGKCKPHQCPLFGNTCNPQTAFGALMVSSEGACAAWYQYRQQESEA
notes: HypD, iron-sulfur cluster-containing hydrogenase maturation protein of Escherichia coli; untagged; Carries a 4Fe-4S cluster; Untagged unless stated otherwise; also called HypD scaffold protein

Legend:
[1] = biological target: the molecule itself; test: native MS; purified N-terminally His-tagged pre-HybC supplemented with equimolar amounts of StrepII-HybG; 500 mM ammonium acetate pH 6.8; CID-MS/MS of the 16+ complex ion
StrepII-tagged HybG [2] = biological target: B2; test: as above; settings: both partners purified
StrepII-tagged HybG [3] = biological target: B2; test: native MS; isolated StrepII-HybG–HypD complex; 500 mM ammonium acetate pH 6.8, about 10 uM protein, nano-ESI Q-TOF, collision energy 40 V; CID-MS/MS of the 13+ ion at 80 V; settings: both partners purified

Row | stoichiometry N (StrepII-tagged HybG [2]) | stoichiometry N (StrepII-tagged HybG [3]) | Binder | stoichiometry N [1]
1 | 1 HybG:pre-HybC |  | B1 | 2
2 |  |  | B2 | 2
3 |  | 1 HybG:HypD | B3 | 
